One experiment addresses 3xHA-NLuc-dSP-AVR-Pia (UniProt B9WZW9). Briefly: split luciferase complementation assay. The note with it: parent: est. 3400; read off a plot.
A further experiment deals with OsHIPP21-HMA (rice). Briefly: ITC.
The target in the next experiment is OsHPP09-HMA (rice). Briefly: ITC.
A further experiment deals with OsHPP10-HMA (rice). Briefly: ITC.
The next experiment addresses OsHPP11-HMA (rice). Briefly: ITC.
Experiment [1] deals with recombinant OsHIPP21-HMA (rice). Briefly: ITC.
Experiment [2] concerns the target recombinant OsHPP09-HMA (rice). Briefly: ITC.
The target in experiment [3] is recombinant OsHPP10-HMA (rice). Briefly: ITC.
The target of experiment [4] is recombinant OsHPP11-HMA (rice). Briefly: ITC.
Experiment [5] has as its target recombinant OsHPP09-HMA (rice). Briefly: NMR titration.

pKd: −log10 of the molar value. “And” between values parts separate entries of the source, which are not always exact repeats. Identical values can stand only once.

For the substance 3xFlag-CLuc-OsHPP09 full-length A37W, the response with 3xHA-NLuc-dSP-AVR-Pia worked out at 1300.
Take 3xFlag-CLuc-OsHPP09 full-length D33A: in the experiment with 3xHA-NLuc-dSP-AVR-Pia, the response turned out to be 2800.
For the substance 3xFlag-CLuc-OsHPP09 full-length D33H, the response in the experiment with 3xHA-NLuc-dSP-AVR-Pia is 2600.
On the same count and under the same terms, as for 3xFlag-CLuc-OsHPP09 full-length D33R, the figure is 2000; as for 3xFlag-CLuc-OsHPP09 full-length K19A, 1800; as for 3xFlag-CLuc-OsHPP09 full-length K19W, 1500.
Turning to 3xFlag-CLuc-OsHPP09 full-length Q20A, the response with 3xHA-NLuc-dSP-AVR-Pia was 3100.
For AVR-Pia (natural protein), the pKd in the experiment with OsHIPP21-HMA (rice) is 5.71 and 5.63; with OsHPP09-HMA (rice) it was 6.90 and 6.73; in the experiment with OsHPP10-HMA (rice), 5.19 and 5.13; with OsHPP11-HMA (rice), 6.03.
As to “recombinant AVR-Pia (from UniProt B9WZW9 1-85) (natural protein)”, the pKd in [1] is 5.89; in experiment [2], 6.94; in experiment [3], 5.28; in experiment [4] it was 6.11; in [5], > 7.00.

The record behind these values is article PMC13395435.
